Experimental data: patent US20190111106A1

Target: AC domain (catalytic domain) of Bordetella pertussis adenylate cyclase toxin, recombinant (Bordetella pertussis) (UniProt J7QLC0)
Assay: SPR competition: AC domain (10 µM) pre-mixed with CaM and injected over an FHA-coated chip

Calmodulin (from UniProt P0DP23 2-149) was tested, and the percent reduction of AC domain binding to FHA was 75%.
